Test results taken from article PMC9719539, “Single-molecule characterization of subtype-specific β1 integrin mechanics” (Nature Communications, 2022).

Tested on: BJ-5ta cells
Test: Percentage of spread cells / cell spreading on TGT surfaces
Assay type: cell-based, human
Settings: 1 h after seeding
Protocol: Glass coverslips were densely PEGylated to minimize non-specific interactions such as the binding of cell-secreted extracellular matrix proteins. Coverslips cleaned by piranha etching solution (a 3:1 mixture of sulfuric acid and hydrogen peroxide) were incubated in silanization solution (UCT, 1760-24-3; 2% aminosilane and 5% acetic acid in methanol) for 30 min and reacted with a mixture of Polyethylene glycol (PEG) with and without biotin (1:19, 150 mg/ml; Laysan Bio, Biotin-PEG-SVA-5000 and MPEG-SVA-5000) for 4 h. Surfaces were washed thoroughly and dried using nitrogen gas after each step. A 3D-printed dish (PLA) or a silicon gasket (Grace Bio Labs, 103280) was attached to the coverslip to form a dish. Neutravidin (Thermo Fisher scientific, 31000; 0.4 mg/ml) was added to the dish for 10 min and washed out thoroughly. […]
The cells were gently harvested by washing in PBS for 1 min, incubating with 0.05% trypsin for 3 min, and then neutralizing with cell culture medium (FBS 10%). […] A Nikon Eclipse Ti microscope equipped with Xenon arc lamp, Nikon perfect focus system, custom total internal reflection fluorescence microscopy (TIRFM) module, and custom reflection interference contrast microscopy (RICM) module was driven by Elements software. […] Images were recorded using an electron-multiplying charge-coupled device (EMCCD; Andor iXon 888). […]

B1: vitronectin: physiologic macromolecular ligand with RGD motif (protein, UniProt P04004 20-478, looked up)
Vitronectin: DQESCKGRCTEGFNVDKKCQCDELCSYYQSCCTDYTAECKPQVTRGDVFTMPEDEYTVYDDGEEKNNATVHEQVGGPSLTSDLQAQSKGNPEQTPVLKPEEEAPAPEVGASKPEGIDSRPETLHPGRPQPPAEEELCSGKPFDAFTDLKNGSLFAFRGQYCYELDEKAVRPGYPKLIRDVWGIEGPIDAAFTRINCQGKTYLFKGSQYWRFEDGVLDPDYPRNISDGFDGIPDNVDAALALPAHSYSGRERVYFFKGKQYWEYQFQHQPSQEECEGSSLSAVFEHFAMMQRDSWEDIFELLFWGRTSAGTRQPQFISRDWHGVPGQVDAAMAGRIYISGMAPRPSLAKKQRFRHRNRKGYRSQRGHSRGRNQNSRRPSRATWLSLFSSEESNLGANNYDDYRMDWLVPATCEPIQSVFFFSGDKYYRVNLRTRRVDTVDPPYPRSIAQYWLGCPAPGHL
Question: For B1, which “cell morphology (in words)” value is on record?
Answer: The value was “elongated with irregular lamellipodia”.
